Measured values as given in publication PMC10615203, “The 14-3-3 protein OsGF14f interacts with OsbZIP23 and enhances its activity to confer osmotic stress tolerance in rice”.

T1: GST-OsbZIP23 (Oryza sativa, UniProt Q6Z312)
T1 sequence: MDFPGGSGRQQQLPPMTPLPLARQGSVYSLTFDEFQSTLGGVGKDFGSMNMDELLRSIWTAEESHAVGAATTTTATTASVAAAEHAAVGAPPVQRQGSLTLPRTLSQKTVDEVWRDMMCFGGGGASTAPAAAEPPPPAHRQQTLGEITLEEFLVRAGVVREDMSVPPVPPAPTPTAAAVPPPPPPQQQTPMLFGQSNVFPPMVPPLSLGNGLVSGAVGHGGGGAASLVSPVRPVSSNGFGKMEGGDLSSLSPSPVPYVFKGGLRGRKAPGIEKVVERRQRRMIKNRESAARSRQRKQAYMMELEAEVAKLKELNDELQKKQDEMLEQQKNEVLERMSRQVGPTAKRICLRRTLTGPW

T2: GST-OsGF14f (Oryza sativa, UniProt Q06967 1-260)
T2 sequence: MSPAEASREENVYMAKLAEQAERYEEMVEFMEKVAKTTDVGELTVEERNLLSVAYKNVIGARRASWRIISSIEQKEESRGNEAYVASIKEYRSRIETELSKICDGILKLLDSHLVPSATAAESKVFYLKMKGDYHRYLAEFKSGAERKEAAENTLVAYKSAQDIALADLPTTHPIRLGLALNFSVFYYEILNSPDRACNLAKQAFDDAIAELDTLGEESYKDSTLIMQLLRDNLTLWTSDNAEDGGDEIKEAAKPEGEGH


What was measured:
GST-OsbZIP23 = molecular target: T1, GST-OsbZIP23; assay: EMSA; EMSA kit (Viagene) binding buffer (composition not given), room temperature, 20 min; 6% native PAGE; details: protein: recombinant; tags: GST (N-terminal, pGEX-4T-3); chain copies: 2; label: 5' biotin; blunt
GST-OsGF14f = molecular target: T2, GST-OsGF14f; assay: as above; details: protein: recombinant; tags: GST (N-terminal, pGEX-4T-3); chain copies: 2; label: 5' biotin; blunt

| Binder | binding result (GST-OsbZIP23) | binding result (GST-OsGF14f) |
| --- | --- | --- |
| OsGF14f promoter probe (dsDNA) DNA 1: TGGCGCCTTGCCACGTGCCCCCTCCCT DNA 2: AGGGAGGGGGCACGTGGCAAGGCGCCA | binds |  |
| OsLEA3-2 promoter probe P1 (dsDNA) DNA 1: ACCCGAGGCACACGTGTCCACCTCACCGGGGCACGTGTCGCGCCGT DNA 2: ACGGCGCGACACGTGCCCCGGTGAGGTGGACACGTGTGCCTCGGGT | binds | no binding |
